Assay results reported in a protein production outcome set (Wang et al. 2014).

Assay: label from the status in PepcDB records

Sequence | protein production
MALGLLPLVLLTLSIFIYLVSKMSWKMGALLNFLAGLFTILYVFTLKVGTFEKLDLFGLNIQFEWTNVSFYFSFVSLLVIVSVMLFSTKWLETQKYRASYNMFLLMVTAGSLGVFMAADLITLYVFWEIAVLSSLLIVPMEKKEARKAVVVYAVMSAVGTYAFLYGTFLAYQRYGTLNIHGIAQGMLNDTSIGFKMAVFLLLSAAGIAKSGIFPLHIWLRETHGLAPNAFSSVLSGQFIKLGNYIFLLVLSVIPSLKVFSEVTVYSGIPLPNYILIALGNVSIVIGTLMAIKQDDMKMLMAYSSVANGGYILIGIGTMDPLGFEGGMFHIFNHAVASAVIFMAFAAVIYRTKTQKISEMGGLIHKMPVTFLVYLFSIISLAGIPPMSGFISKWMIYQALVRKGMFITAFLAFFGSIGSFLYVFRPLAGVFLGQLPRKYRDVKEAPAVMLTPMVLLVLISFFLGVWPFPILQAIEKIRVDLDVAPSFKISDPENWLVKGFAGSWNPVLVFGLFLVGFIVAYILYSLFPRPKKVDLLAPHREEGTPINIYTGGEFIYNPDLYHYNTKFYAGFERMYEKHPSWEKLLKMFGKLFHDAGEWIHSWFFEPSSSAYTFWVVVTLLLVFWVRW | failed
MSSFSLAVRDSSTMLRRNLLHARRYPSLTLNLLLTPVMLLLLFVYIFGDTMSGGAGRSAYIAYIVPGILLMTIGSTTIGTAVSVSTDMNEGIIARFRTMAIHRSSVLFGHVAGSVLQAIMSVVLVGAVGVAMGFRSTDATVLEWLAAFGLLALFALAFTWIAVGMGLGSPNAEAASNNAMPLILLPLISSAFVPLDSMPGWFQPIAEYQPFTPAIETLRGLLLGTEIGNNWWIALAWCLGLTVLGHRWSKAQFNRDPK | failed
SLDLDLQRRVYDIISKAVEGNSAEAGHVIVMESKTGRILSMVTTRNWNDLIGGYIEPGSTIKPLVYAIALETHSASPDFTVECEGSIKPVEQLPVIIRDIEKHGLVDFSAGIVKSCNVMSVKVGELITEKTGVEGFYEWLRKVGFGEKTGIEMEGEIAGVLREPKKWSLIDPAEISIGQGIGVTPVQLIASLNIFANDGYWVKPTILKDSPVKKRRVFSKETTDVIRQAMVRVVEEGTGKLAQVKGIAIAGKTGTAQKAVGGEYRNLYHSLFVGFFPAEDPKYTILVHLDSPSGAFYGGEVAAPVFREIVEILTEKED | failed
MEISCLLNEIKASIRYENQIVHIEETPARDACYAPLELEVRIKAALSGTGIEALYSHQAEAIEKVREGKDLVLCTSTASGKSLTYMIPVFEAVLKDPEATSLYISPLNALVNDQLKAFLEFEGALNSGAGIARYTGALSADQKRKIRDGKTNIVFTNPEMVHMSFLAWHHLWRRFFSNLRFIVVDESHYYRGVIGSNMANVLRRLLRVAEYYGASPQFICCSATIGNPEDHTETLLGREAVVVENNGSLQGPQKFVFWNPPLYMNGRGCTVRRSSFSEASALFTRAVQAGLQTLAFTRSRQGVERMYRTCMELLRDRELPSAICPYRSGYFDREREEIERKMNSGELRGVISTNALELGIDIGGLDVCILDGYPGTVMSARQQAGRAGRSGNESLVLMVAGTNALDQYYMRNPADFFARSSENAVLNPKNPYILAGHLLCAAKEIPLRESDEKYFGGGYSRVVELLEAEGLLAGSDMKYSTDPFPYKQVSLRGIDNNTYSLLAFEGERSFPIEKDIEETLAFRECHPGAVYIHRGESFYINRIDHEKREIHAIKTHDSYYTKPMIDSSVVVQETYAAKPLLHAPEVEVGLGEVEVTDRIAGYRKIRTHSDETMSAHEIEMPPITLQTVALWLKLPDRLQEMIGDHKLDFAGGIHAVEHAIISMYPLHLLVDRSDVGGVSTPSHPDLGSKSGIFIYDGHRGGVGYAEKGYDLIEEVLEGTLKAIESCPCESGCPGCIQSPKCGNNNEPLDKHAAIMLLHELLGKAPYIPPEKKEKHLSEARARKTIPQERKSSGDALDRVRRQLRRENINQEPQAGKEKKEKTFIATDENGGMIGVVSAPTPEKAAAKTFHKKLAGQQGATKEKPLEIRIRDLGAGSDYHFRAWTELFEAAENGDPESKEKKAVKKLFIRKMS | failed
MLGRAFQDLNRLRQISAAMARHGFGAYLERMRLRDVLGRDAPPPGQPLPPPDRTTAARFRTMLGELGPTFIKLGQLLSSRPDVLPSHWVDELEKLQDACPPVGVAEIREEIERGLGRPVEALFAALDPVPLASASIAQVHRATTHEGVQVVVKVQRPRIREQIESDLALLHDLAGLLEAVVEETGIYTPTGVMEEFDRTIHEELDFSNEARNATAMYETSAGREFLVIPRVHKALSCDTVLTLDYVEGVKVSDVTAEAGFDLEQVARNVIEASFRQLFEDGLFHGDPHPGNILVLPGNRIALLDFGLVGRLSRVQQEALVTLIVAVALRDPETVARVLNRIGVPDARAPITEFREDIRVILDRYLGLRLDEIRSATLLRDLLDLAIRHRIRIPKEYAVLAKASVTIEGIIRRLYPKLDILEVGLPYAKELLLSRFNPSDASGLVMRALLKLQGLAEDVPTQLSQILVDLEGGKFRVNVASDAIDRIGGHVRALGVLLFLGLLAAGLTVGGLVVLAGGEGLLGGLALGAAALLCAFAAAYHLATLRMRKISLRRWLKR | failed
MAESPRRETLIGGAVVLLGVALLAATSINRHDASGQAGAYQVEAVFNRTDGIGIGSPVRLAGIPIGRIVGHKLDPEYRAIVTMRLDLPNELPDDTAAKIQTDGLLGSKYIELVSLGGGYGTIAPGGRLDYSQDSVIVEDLLVKIVAMAKIKRGLDPDIPAAEQQKAKAASHPQAPPPGGAGDPGDPFGGGAVAPPEVNPFAPGPFEDDPPPPEPGVFSPDPGRDGVSEPPPAQDTRHDMRTNTLNDTAGTAPGAVTLASLPAVQADVEEGR | failed
MKETHNSQDRLAYLKQQLPADITRSVIDTLKEDLGGTLDPAADITASLIPADRISTATIITREAGVFCGQLWADEVFKQLGGQVSIEWHVQDGDTLTPNQTLCTLTGPARILLTGERNAMNFIQTLSGCATATARYVQELKGTQCRLLDTRKTIPGLRSALKYAVACGGGYNHRIGVFDAYLIKENHIIACGGIRQAISTAKQLNPGKPVEVETETLAELEEAISAGADIIMLDNFSLEMMREAVKINAGRAALENSGNITLDNLKECAETGVDYISVGALTKHLKALDLSMRFKS | not failed
SNRLPDDYDPYAVEEPSDEEPALSSSEDEVDVLLHGTPDQKRKLIRECLTGESESSSEDEFEKEMEAELNSTMKTMEDKLSSLGTGSSSGNGKVATAPTRYYDDIYFDSDSEDEDRAVQVTKKKKKKQHKIPTNDELLYDPEKDNRDQAWVDAQRRGYHGLGPQRSREQQPVPNSDAVLNCPACMTTLCLDCQRHESYKTQYRAMFVMNCSINKEEVLRYKASENRKKRRVHKKMRSNQEDAAEKAETDVEEIYHPVMCTECSTEVAVYDKDEVFHFFNVLASHS | not failed
MLPIAPCARQAVHRQCGGMQNSAAARKLHAVLPRTLDTARIARRSSMFLRRNGLSLCLLALTIFFIGCQVYAGLHAYNDELREQGQPTLLLSAYLHSPHFMSALFENWESEFLQMGMYVLLTVKLRQVGSAESRPLDPTEETVEIKSGPTPWPVRAGGVWRRLYDHSLAIAFAALFLMSFALHLVGSWRLEVTERAQKGLPPITVLEHFTSASFWFESMQNWQSEFLAVFSLVVLTIWLRQKDSPQSKPVEAPHSQTGG | failed
MNHLPEKMRPYRDLLEKSAKEYVKLNVRKGKTGRYDSKIAGDPYFPKHETYPTDENGQPMKLLAQINFSHIPQLDGYPSSGILQFYISVHDDVYGLNFDDRCEQKNFRVIYFENIVENDDELVSDFSFIGTGECDFPILSEAAVEPVKSSEWVLPTDFQFEQYTGMETMEFFGQFGEDEEDIYNELAENGFGHKIGGYASFTQHDPREYAYKEHTIMLLQIDSDDDIDSMWGDVGIANFFITPEDLRKKDFSNVLYNWDCS | not failed
PAIDYKTAFHLAPIGLVLSRDRVIEDCNDELAAIFRCARADLIGRSFEVLYPSSDEFERIGERISPVMIAHGSYADDRIMKRAGGELFWCHVTGRALDRTAPLAAGVWTFEDLSATRRVA | not failed
MGREIFNRRLPDNYNDFSHSMDNAANGHYFLRVASSNYKRPDGKNVRTVRDVIAEVDQNGVVVDEWRLFDILDPYRDVIMKTLDQGAVCLNIDASQSGHTLSEEDLAALDSSDKFGDIVGSGAGRNWAHVNSVDYDSEDDSIIISSRHQSAIIKIGRDKKVKWILGTPAGWKAPFNAAILTPVDSKGQKIACQDSGCEGDFDWTWTQHTAFKIDSKSKGDILYLSAFDNGDGRGLEQPAMQSMKYSRSVIYKIDQKNKTVQQIWQYGKERGNEWFSPVTSITEYQTDKNSVFVYSATAGGAFDLSVGAFTSLPNPYLEEFKWGEKEPAVEMQIHGARGYQAMPFSLTKALTELEHHHHHH | failed
MEVKMNEIMEALEQSELIIIHRHLRPDPDAYGSQLGLKYYLQKKFPNKQIYAVGANEDSLKFIGLMDEIDDDMYKKATVVVCDTANAPRIDDQRYDTGTKLLKIDHHPATDQYGDINYVNTKASSTSEIIYEFILHFNDEHIIDEQVARVLYLGIVGDTGRFLFNNTTPRTMQIAGKLLTYPFDHNQELNKMSEKDPKLLPFQGYILQNFDLNDKGFCKVKITKDILEKFQIQPNEASLFVNTIADIRGLKIWMFGVDEGDQIRCRLRSKGHIIINDVANTFGGGGHPNASGVSVNSWEQFEQLAEALNDKL | failed
MQFFDGYHYHGTTFEQSYRCYPASFIDKPQLESGDKIIMPPSALDRLASLHIDYPMLFELRNAGIERVTHCGVLEFIAEEGMIYMPYWMMQNLLLQEGDIVRVRNVTLPKGTYVKLQPHTTDFLDISNPKAILETALRNYSCLTSGDSIMVPYNNKKYFIDIVETKPANAISIIETDCEVDFAPPLDYKEPERPTAPSAAKGPAKAEEVVDEPEPKFNPFTGSGRRLDGRPLAYEPAPASSSKGKQPVVANGNGQSSVASSSEKATRAQGKLVFGANGNRAPKEAAPKVGAAKETKKEEQEKKDEPKFQAFSGKKYSLRG | not failed
MSTSQTKNVSIDTIKEFMYQVLLKVGSDEENARMVRDTLIAADLRGMDTHGIQRFKTVYIDRIKKGMINPTAKPSIIRETSTTCVLDGNNGFGHVNGTIGMKMAIEKAKKYGMGMVVVRNSTHFGIAGYYSLLAAQEGCIGICGTNARSSVAATFGDEPILGTNPLAIGIPSDEAFPYCFDGATSISPTGRFEKYVRMGKTVDKSWASMKGGKPIEDPKELLENYPKGKAYLHPLGGSDEVSGSHKGYCLSEFVEIMSSCLSIANFLNHIEEEKEKSGKFSLGHFFIAINVECFRDLNEFKKNVGDINRTLRNTDKLPGHDRIYTAGEKEYETEQKRRKFGDDLPLVTINEMKELSSFYNVPLPF | not failed
KFTELEFHRIIGTGQFGLVRVVRNIKTNEVYALKVMHKAPIVESKQIEHVINERKILEEACTHPFCVRLCGAYQDKASLYLLQEWVPGGELFHHLDVEGAFDEPTAMFYAANVLLALEFLHAKGIVYRDLKPENLLLDTQGYIKMADFGFAKYIGGDKTYTICGTPDYQAPEVIMRRGTTKAADYWALGVLIFEMLVGDPPFKSLTGDPWDTFRRTLSGRFYVPNFISDQAADLIFKLLQVNPDKRLGSDKRLGAEEIKRHRWFSRIDWRALEQKKLPSPFRPRVRNPLDTSNFDNFDN | not failed
MHPFRWQRSRQRSSALSFLKKAFYQIPVIGWLVKDAAHGSPEAPYFFLFNAVVVGAALIYTFGYPLVITVAVAGAFAGIAGLVVLTAGDAFDKRAKQPATDVRRAKTATVRPLKKAA | failed
TIDSNFQNKVDEILQRNYSQIVKTIGPYSENAYVVAMNPQTGAILAMSGFHHDLATGEVTPNPLAPILNSEVPGSVVKAGTLTAGYETGVIKGNDVLTDEAILLAGSNPKASWWNASGGTTMQLTAEQALEYSSNAYMMKLVFKMMGVNYYPNMIFPYEVGDDTVFKELRKAFAEYGMGTKTGIDIPGETTGIQNKDFKDSSSAPQGGNLLDLSFGQYDTYSALQLAQYVSTVANNGIRVQPHVVEGIYGNDENGALGKILKEIEPKVLNKVNISEDQIGILQQGFYNVVNGTSPFTTARGLKSDKFSIAAKTGTAETQATDANGVNHTTVNSNLVAYAPYENPEIAISVVLPHLNDEASKPNQTIAKEVLEAYMEMYKK | failed
